Assay results as given in patent US20250171558A1 (published 2025).
Blank lines part the entries; values can stand above or below the binder they belong to.

Columns and labels:
Assay in all cases: SPR; human
SDIE = molecular target: SDIE
Afucosylated = molecular target: Afucosylated
human FcγRIIB = molecular target: T1, human FcγRIIB (human, UniProt P31994 43-217)
T1 chain: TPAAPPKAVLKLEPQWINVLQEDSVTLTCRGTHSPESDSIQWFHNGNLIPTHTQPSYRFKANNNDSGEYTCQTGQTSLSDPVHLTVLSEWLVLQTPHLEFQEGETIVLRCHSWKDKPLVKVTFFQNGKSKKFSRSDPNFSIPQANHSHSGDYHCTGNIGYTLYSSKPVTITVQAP

Kd (SDIE): 0.665 µM | Kd (Afucosylated): 5.88 µM
B1: FcγRIIb (receptor)
chain: T1 chain

Kd (human FcγRIIB): 19.6 µM
B2: GAALIE (protein)
chain: ASTKGPSVFPLAPSSKSTSGGTAALGCLVKDYFPEPVTVSWNSGALTSGVHTFPAVLQSSGLYSLSSVVTVPSSSLGTQTYICNVNHKPSNTKVDKRVEPKSCDKTHTCPPCPAPELLAGPSVFLFPPKPKDTLMISRTPEVTCVVVDVSHEDPEVKFNWYVDGVEVHNAKTKPREEQYNSTYRVVSVLTVLHQDWLNGKEYKCKVSNKALPLPEEKTISKAKGQPREPQVYTLPPSREEMTKNQVSLTCLVKGFYPSDIAVEWESNGQPENNYKTTPPVLDSDGSFFLYSKLTVDKSRWQQGNVFSCSVMHEALHNHYTQKSLSLSPGK
